The target in the assay is 14-3-3γ (UniProt P61981). The experiment in a line: co-immunoprecipitation, Western blot. Conditions: reference: full-length wild-type MDMX; sites S367. For orientation: In western blotting, separated proteins are transferred to a membrane and probed.

For MDMX (from UniProt O15151) MDMX-S367A, the “binding against the reference” value is recorded as “lost”.

Values taken from publication PMC12595022.
